Measured values published in PMC10247859, “Replisome-cohesin interactions provided by the Tof1-Csm3 and Mrc1 cohesion establishment factors” (Chromosoma, 2023).

T1: Tof1 (S. cerevisiae (budding yeast), UniProt P53840 1-1238)
T1 construct: Tof1, budding yeast; the Tof1 chain of m2; Stood in the cross-linking sample as a chain of the Tof1-Csm3 complex; source: purified as part of Tof1-Csm3, as previously described (Yeeles et al. 2017)
T1 sequence (looked up): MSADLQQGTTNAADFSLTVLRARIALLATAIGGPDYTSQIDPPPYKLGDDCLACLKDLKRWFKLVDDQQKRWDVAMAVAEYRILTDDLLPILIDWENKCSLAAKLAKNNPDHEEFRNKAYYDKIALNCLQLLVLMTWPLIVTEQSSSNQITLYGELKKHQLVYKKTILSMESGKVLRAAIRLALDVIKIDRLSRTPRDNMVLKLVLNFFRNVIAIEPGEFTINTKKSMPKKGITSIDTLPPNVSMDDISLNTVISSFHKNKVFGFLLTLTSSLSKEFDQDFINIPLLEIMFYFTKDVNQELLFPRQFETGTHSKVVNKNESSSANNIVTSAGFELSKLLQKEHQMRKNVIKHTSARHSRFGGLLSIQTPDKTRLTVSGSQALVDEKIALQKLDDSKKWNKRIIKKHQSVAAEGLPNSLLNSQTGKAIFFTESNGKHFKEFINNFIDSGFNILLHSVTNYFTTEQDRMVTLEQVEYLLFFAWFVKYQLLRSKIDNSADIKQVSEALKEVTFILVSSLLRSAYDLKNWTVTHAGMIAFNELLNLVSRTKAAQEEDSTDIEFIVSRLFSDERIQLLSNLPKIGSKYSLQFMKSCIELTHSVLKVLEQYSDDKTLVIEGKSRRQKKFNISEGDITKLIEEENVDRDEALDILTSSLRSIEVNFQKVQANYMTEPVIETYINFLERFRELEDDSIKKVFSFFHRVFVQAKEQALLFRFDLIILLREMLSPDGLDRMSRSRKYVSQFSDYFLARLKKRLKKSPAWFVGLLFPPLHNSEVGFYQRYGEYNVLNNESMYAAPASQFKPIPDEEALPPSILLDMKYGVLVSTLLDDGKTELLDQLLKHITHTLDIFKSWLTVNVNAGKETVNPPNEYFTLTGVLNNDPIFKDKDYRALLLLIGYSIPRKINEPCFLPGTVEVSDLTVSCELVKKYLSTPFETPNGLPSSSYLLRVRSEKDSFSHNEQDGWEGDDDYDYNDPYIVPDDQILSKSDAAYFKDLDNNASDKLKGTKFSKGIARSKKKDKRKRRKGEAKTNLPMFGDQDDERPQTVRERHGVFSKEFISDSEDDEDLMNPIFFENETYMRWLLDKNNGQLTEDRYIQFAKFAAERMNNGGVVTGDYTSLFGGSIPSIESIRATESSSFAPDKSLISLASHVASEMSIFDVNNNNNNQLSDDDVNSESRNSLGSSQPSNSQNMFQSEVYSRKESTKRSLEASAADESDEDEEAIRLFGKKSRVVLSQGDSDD

T2: Chl1 (S. cerevisiae (budding yeast), UniProt P22516 1-861)
T2 construct: Chl1, budding yeast; codon-optimized ectopic copy; also called Flag-tagged Chl1; Chl1 helicase
T2 sequence (looked up): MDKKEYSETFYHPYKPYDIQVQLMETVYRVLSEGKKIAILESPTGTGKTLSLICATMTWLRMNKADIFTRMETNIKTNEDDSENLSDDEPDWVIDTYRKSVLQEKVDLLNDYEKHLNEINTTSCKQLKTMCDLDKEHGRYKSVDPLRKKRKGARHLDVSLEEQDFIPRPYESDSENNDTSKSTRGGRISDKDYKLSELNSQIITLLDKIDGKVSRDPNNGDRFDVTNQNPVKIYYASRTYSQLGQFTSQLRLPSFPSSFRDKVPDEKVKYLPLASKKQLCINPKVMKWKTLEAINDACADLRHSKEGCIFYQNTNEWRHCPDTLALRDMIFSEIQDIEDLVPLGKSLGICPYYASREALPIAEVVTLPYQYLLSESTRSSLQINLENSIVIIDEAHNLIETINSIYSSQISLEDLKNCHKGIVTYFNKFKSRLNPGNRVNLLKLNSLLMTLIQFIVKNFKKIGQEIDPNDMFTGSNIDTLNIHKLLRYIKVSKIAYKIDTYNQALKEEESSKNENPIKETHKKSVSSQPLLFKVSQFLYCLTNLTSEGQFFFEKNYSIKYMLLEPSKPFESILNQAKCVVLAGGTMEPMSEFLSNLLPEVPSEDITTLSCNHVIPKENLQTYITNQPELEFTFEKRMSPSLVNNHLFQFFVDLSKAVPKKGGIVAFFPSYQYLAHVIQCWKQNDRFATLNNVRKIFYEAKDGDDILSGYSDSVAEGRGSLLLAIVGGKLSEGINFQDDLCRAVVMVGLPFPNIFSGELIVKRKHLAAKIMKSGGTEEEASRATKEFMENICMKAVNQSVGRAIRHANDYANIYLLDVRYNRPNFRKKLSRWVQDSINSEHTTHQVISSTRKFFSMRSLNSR


Key:
Details in all cases: both partners purified
[1] = target: T1, Tof1; experiment: cross-linking; CLMS with sulfo-SDA; cohesin, Tof1-Csm3 and Chl1 with or without Mrc1 at 300-350 nM, 30 °C 5 min, cross-linker 2 h at 4 °C, UV 365 nm; LC-MS/MS, 1% FDR at residue-pair level; two samples merged
[2] = target: T2, Chl1; experiment: as above
[3] = target: T3, cohesin tetramer complex (Smc1-Smc3-Scc1-Scc3) (S. cerevisiae (budding yeast), UniProt P32908 1-1225; P47037 1-1230; Q12158 1-566; P40541 1-1150); experiment: pull-down; cohesin tetramer (200-600 nM) held on Protein A dynabeads by anti-Pk antibody (Pk tag on Smc1); 200 nM prey, 30 °C, 5 min; 25 mM HEPES-KOH pH 7.6, 100 mM potassium glutamate, 10 mM magnesium acetate, 0.12% NP-40; SDS elution, Coomassie staining
T3 construct: Smc1, cohesin subunit, budding yeast; Smc3, cohesin subunit, budding yeast; Scc1, cohesin subunit, budding yeast; Scc3, cohesin subunit, budding yeast; also called cohesin complex; source: purified as previously described (Minamino et al. 2018): IgG agarose, 3C protease cleavage; copies: + + +
T3 sequence (P32908 whole entry, chain 1 of 3): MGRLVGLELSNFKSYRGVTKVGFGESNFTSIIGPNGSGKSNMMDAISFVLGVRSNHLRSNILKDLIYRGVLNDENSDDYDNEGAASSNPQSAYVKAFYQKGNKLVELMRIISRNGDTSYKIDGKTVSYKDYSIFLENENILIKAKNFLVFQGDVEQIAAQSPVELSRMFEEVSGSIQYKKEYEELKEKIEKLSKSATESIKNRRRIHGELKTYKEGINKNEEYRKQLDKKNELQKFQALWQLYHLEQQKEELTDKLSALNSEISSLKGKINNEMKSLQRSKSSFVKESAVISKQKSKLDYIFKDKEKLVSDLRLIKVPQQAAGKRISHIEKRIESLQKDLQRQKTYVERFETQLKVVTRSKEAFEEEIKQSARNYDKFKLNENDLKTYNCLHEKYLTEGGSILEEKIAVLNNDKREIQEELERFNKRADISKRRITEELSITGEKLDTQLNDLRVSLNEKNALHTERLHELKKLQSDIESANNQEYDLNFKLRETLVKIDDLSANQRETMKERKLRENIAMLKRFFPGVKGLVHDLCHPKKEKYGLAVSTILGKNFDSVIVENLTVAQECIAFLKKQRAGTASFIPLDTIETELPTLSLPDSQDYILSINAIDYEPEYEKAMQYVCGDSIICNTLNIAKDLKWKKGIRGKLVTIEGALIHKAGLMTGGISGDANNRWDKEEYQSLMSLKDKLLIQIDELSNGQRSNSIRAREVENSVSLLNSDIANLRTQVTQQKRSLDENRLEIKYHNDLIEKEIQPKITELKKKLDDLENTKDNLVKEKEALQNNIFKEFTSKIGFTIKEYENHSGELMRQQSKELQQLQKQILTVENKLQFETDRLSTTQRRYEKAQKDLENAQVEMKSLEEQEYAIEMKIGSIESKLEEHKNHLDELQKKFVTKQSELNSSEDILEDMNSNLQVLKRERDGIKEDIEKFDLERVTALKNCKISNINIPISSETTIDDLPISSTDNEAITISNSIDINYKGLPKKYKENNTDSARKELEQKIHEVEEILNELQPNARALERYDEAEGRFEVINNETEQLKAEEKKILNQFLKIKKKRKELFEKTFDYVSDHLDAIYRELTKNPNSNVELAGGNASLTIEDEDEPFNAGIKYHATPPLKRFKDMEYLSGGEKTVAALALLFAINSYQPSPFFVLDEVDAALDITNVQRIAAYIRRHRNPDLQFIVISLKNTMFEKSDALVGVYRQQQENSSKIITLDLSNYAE
T3 sequence (P47037 whole entry, chain 2 of 3): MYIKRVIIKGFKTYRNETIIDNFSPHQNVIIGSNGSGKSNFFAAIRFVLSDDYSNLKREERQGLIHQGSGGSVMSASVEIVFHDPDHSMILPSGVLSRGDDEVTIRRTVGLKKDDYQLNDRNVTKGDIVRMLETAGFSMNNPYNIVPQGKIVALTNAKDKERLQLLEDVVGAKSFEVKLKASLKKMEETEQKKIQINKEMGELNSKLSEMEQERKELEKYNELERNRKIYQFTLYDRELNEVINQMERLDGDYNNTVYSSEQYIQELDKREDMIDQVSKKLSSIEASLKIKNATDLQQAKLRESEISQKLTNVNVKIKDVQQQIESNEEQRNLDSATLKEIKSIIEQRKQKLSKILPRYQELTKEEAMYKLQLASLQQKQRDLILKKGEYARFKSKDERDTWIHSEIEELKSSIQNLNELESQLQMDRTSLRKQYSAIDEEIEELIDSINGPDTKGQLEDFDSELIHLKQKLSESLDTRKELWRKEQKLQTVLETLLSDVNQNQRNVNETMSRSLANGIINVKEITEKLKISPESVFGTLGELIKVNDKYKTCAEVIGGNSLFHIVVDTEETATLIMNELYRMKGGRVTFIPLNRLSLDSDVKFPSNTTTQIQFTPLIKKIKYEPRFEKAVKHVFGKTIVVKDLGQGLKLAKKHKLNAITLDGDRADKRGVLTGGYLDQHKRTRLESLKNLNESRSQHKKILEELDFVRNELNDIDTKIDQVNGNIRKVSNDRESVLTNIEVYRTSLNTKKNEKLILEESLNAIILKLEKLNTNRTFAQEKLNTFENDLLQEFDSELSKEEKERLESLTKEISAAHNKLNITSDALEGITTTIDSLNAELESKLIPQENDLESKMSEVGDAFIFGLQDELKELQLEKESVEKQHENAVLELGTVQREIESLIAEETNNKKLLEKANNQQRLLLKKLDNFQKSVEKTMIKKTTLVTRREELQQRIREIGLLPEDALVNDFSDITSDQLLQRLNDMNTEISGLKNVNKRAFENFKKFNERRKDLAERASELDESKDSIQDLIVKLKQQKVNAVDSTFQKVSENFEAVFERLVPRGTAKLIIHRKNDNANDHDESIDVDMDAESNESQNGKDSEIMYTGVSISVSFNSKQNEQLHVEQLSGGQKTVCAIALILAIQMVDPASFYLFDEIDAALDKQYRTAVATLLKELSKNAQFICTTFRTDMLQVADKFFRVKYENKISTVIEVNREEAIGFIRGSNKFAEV
T3 sequence (P40541 whole entry, chain 4 of 3): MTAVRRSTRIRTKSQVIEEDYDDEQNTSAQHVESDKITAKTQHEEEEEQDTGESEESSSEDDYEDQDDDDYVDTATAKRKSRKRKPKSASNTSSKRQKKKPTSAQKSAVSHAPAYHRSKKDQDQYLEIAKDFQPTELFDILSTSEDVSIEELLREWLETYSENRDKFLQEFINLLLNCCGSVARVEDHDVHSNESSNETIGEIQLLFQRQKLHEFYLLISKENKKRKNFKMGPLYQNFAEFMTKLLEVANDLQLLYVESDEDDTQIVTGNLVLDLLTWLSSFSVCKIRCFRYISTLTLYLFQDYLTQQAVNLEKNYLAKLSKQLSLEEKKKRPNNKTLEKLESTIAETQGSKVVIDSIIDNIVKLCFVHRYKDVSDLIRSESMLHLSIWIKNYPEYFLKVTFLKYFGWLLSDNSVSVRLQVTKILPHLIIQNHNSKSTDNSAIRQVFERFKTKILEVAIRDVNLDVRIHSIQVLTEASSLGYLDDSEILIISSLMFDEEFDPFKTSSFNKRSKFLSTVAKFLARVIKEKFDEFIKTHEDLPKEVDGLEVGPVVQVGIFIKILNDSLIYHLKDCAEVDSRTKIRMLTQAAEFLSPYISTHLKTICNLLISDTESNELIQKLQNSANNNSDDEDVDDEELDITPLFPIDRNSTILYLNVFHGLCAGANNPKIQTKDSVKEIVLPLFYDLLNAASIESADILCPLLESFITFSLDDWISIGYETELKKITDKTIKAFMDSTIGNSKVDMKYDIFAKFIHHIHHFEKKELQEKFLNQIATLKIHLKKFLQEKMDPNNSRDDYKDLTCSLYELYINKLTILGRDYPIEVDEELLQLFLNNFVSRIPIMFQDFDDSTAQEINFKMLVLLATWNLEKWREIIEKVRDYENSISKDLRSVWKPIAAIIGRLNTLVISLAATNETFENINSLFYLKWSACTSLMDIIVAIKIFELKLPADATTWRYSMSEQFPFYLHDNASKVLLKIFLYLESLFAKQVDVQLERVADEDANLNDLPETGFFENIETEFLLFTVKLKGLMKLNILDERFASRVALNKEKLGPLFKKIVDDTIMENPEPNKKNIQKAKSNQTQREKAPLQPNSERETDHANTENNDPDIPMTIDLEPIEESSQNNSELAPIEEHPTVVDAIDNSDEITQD

[4] = target: T4, cohesin trimer (Smc1-Smc3-Scc1) (S. cerevisiae (budding yeast), UniProt P32908 1-1225; P47037 1-1230; Q12158 1-566); experiment: pull-down; Tof1-Csm3 (200-600 nM) held on calmodulin dynabeads; cohesin tetramer, trimer or Smc1-Smc3 dimer as prey; interaction buffer with 100 mM potassium glutamate; Coomassie staining; benzonase or NaCl added where indicated
T4 construct: Smc1, cohesin subunit, budding yeast; Smc3, cohesin subunit, budding yeast; Scc1, cohesin subunit, budding yeast; source: purified following the same protocol as cohesin tetramers (IgG agarose, 3C protease cleavage); copies: + +
T4 sequence (P32908 whole entry, chain 1 of 2): as the sequence (P32908 whole entry, chain 1 of 3) above
T4 sequence (P47037 whole entry, chain 2 of 2): as the sequence (P47037 whole entry, chain 2 of 3) above

[5] = target: T5, Smc1-Smc3 dimer (S. cerevisiae (budding yeast), UniProt P32908 1-1225; P47037 1-1230); experiment: as above
T5 construct: Smc1, cohesin subunit, budding yeast; Smc3, cohesin subunit, budding yeast; also called SMC dimer; SMC dimers (Smc1-Smc3); source: purified following the same protocol as cohesin tetramers (IgG agarose, 3C protease cleavage); not shown: Protein A, C-terminal, cleaved
T5 sequence (P32908 whole entry, chain 1 of 2): as the sequence (P32908 whole entry, chain 1 of 3) above
T5 sequence (P47037 whole entry, chain 2 of 2): as the sequence (P47037 whole entry, chain 2 of 3) above

Row | binding result [1] | binding result [2] | binding result [3] | binding result [4] | binding result [5] | Binder
1 | binds | binds | – | – | – | Scc1 (natural protein, S. cerevisiae (budding yeast), UniProt Q12158 1-566, looked up, Scc1, budding yeast; the Scc1 chain of m1; Stood in the cross-linking sample as a chain of cohesin; source: purified as part of cohesin, as previously described (Minamino et al. 2018)) MVTENPQRLTVLRLATNKGPLAQIWLASNMSNIPRGSVIQTHIAESAKEIAKASGCDDESGDNEYITLRTSGELLQGIVRVYSKQATFLLTDIKDTLTKISMLFKTSQKMTSTVNRLNTVTRVHQLMLEDAVTEREVLVTPGLEFLDDTTIPVGLMAQENSMERKVQGAAPWDTSLEVGRRFSPDEDFEHNNLSSMNLDFDIEEGPITSKSWEEGTRQSSRNFDTHENYIQDDDFPLDDAGTIGWDLGITEKNDQNNDDDDNSVEQGRRLGESIMSEEPTDFGFDLDIEKEAPAGNIDTITDAMTESQPKQTGTRRNSKLLNTKSIQIDEETENSESIASSNTYKEERSNNLLTPQPTNFTTKRLWSEITESMSYLPDPILKNFLSYESLKKRKIHNGREGSIEEPELNVSLNLTDDVISNAGTNDNSFNELTDNMSDFVPIDAGLNEAPFPEENIIDAKTRNEQTTIQTEKVRPTPGEVASKAIVQMAKILRKELSEEKEVIFTDVLKSQANTEPENITKREASRGFFDILSLATEGCIGLSQTEAFGNIKIDAKPALFERFINA
2 | – | – | binds | binds | binds | Tof1-Csm3 complex (complex, S. cerevisiae (budding yeast), Tof1, budding yeast; Csm3, budding yeast; Held on calmodulin dynabeads when used as bait; source: purified as previously described (Yeeles et al. 2017)) chain 1: MSADLQQGTTNAADFSLTVLRARIALLATAIGGPDYTSQIDPPPYKLGDDCLACLKDLKRWFKLVDDQQKRWDVAMAVAEYRILTDDLLPILIDWENKCSLAAKLAKNNPDHEEFRNKAYYDKIALNCLQLLVLMTWPLIVTEQSSSNQITLYGELKKHQLVYKKTILSMESGKVLRAAIRLALDVIKIDRLSRTPRDNMVLKLVLNFFRNVIAIEPGEFTINTKKSMPKKGITSIDTLPPNVSMDDISLNTVISSFHKNKVFGFLLTLTSSLSKEFDQDFINIPLLEIMFYFTKDVNQELLFPRQFETGTHSKVVNKNESSSANNIVTSAGFELSKLLQKEHQMRKNVIKHTSARHSRFGGLLSIQTPDKTRLTVSGSQALVDEKIALQKLDDSKKWNKRIIKKHQSVAAEGLPNSLLNSQTGKAIFFTESNGKHFKEFINNFIDSGFNILLHSVTNYFTTEQDRMVTLEQVEYLLFFAWFVKYQLLRSKIDNSADIKQVSEALKEVTFILVSSLLRSAYDLKNWTVTHAGMIAFNELLNLVSRTKAAQEEDSTDIEFIVSRLFSDERIQLLSNLPKIGSKYSLQFMKSCIELTHSVLKVLEQYSDDKTLVIEGKSRRQKKFNISEGDITKLIEEENVDRDEALDILTSSLRSIEVNFQKVQANYMTEPVIETYINFLERFRELEDDSIKKVFSFFHRVFVQAKEQALLFRFDLIILLREMLSPDGLDRMSRSRKYVSQFSDYFLARLKKRLKKSPAWFVGLLFPPLHNSEVGFYQRYGEYNVLNNESMYAAPASQFKPIPDEEALPPSILLDMKYGVLVSTLLDDGKTELLDQLLKHITHTLDIFKSWLTVNVNAGKETVNPPNEYFTLTGVLNNDPIFKDKDYRALLLLIGYSIPRKINEPCFLPGTVEVSDLTVSCELVKKYLSTPFETPNGLPSSSYLLRVRSEKDSFSHNEQDGWEGDDDYDYNDPYIVPDDQILSKSDAAYFKDLDNNASDKLKGTKFSKGIARSKKKDKRKRRKGEAKTNLPMFGDQDDERPQTVRERHGVFSKEFISDSEDDEDLMNPIFFENETYMRWLLDKNNGQLTEDRYIQFAKFAAERMNNGGVVTGDYTSLFGGSIPSIESIRATESSSFAPDKSLISLASHVASEMSIFDVNNNNNNQLSDDDVNSESRNSLGSSQPSNSQNMFQSEVYSRKESTKRSLEASAADESDEDEEAIRLFGKKSRVVLSQGDSDD chain 2: MDQDFDSLLLGFNDSDSVQKDPTVPNGLDGSVVDPTIADPTAITARKRRPQVKLTAEKLLSDKGLPYVLKNAHKRIRISSKKNSYDNLSNIIQFYQLWAHELFPKAKFKDFMKICQTVGKTDPVLREYRVSLFRDEMGMSFDVGTRETGQDLERQSPMVEEHVTSAEERPIVADSFAQDKRNVNNVDYDNDEDDDIYHLSYRNRRGRVLDERGNNETVLNNVVPPKEDLDALLKTFRVQGPVGLEENEKKLLLGWLDAHRKMEKGSMTEEDVQLIQSLEEWEMNDIEGQHTHYDLLPGGDEFGVDQDELDAMKEMGF
